Test results reported in US20020098183A1 (published 2002).

Molecular target: T1, human L-selectin (on human leukocytes) (human, UniProt P14151 39-372)
T1 construct: whole, on cells; also called LECAM-1; Lam-1
T1 sequence (looked up): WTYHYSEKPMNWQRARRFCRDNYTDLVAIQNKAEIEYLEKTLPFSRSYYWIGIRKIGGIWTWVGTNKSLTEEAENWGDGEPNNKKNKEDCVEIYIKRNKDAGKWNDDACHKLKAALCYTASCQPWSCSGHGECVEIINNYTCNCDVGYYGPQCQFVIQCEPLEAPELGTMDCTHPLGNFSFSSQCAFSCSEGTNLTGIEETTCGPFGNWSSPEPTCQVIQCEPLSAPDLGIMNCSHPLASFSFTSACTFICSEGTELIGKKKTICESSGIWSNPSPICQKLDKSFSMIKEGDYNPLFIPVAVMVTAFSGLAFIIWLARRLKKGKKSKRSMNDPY
Assay: binding to leukocytes (e.g. FACS analysis)

B1: HuDreg 55 humanized anti-L-selectin antibody (antibody, human IgG4, kappa, V domains shown)
VH: EVQLVESGGGLVQPGGSLRLSCAASGFTFSTYAMSWVRQAPGKGLEWVASISTGGSTYYPDSVKGRFTISRDNAKNTLYLQMNSLRAEDTAVYYCARDYDGYFDYWGQGTLVTVSS
VL: DIQMTQSPSSLSASVGDRVTITCKASQSVDYDGDSYMNWYQQKPGKAPKLLIYAASNLESGIPSRFSGSGSGTDFTLTISSLQPEDFATYYCQQSNEDPWTFGQGTKVEIKR
Does B1 bind?
Result: binds
